Legend:
Format in all cases: in vivo
[1] = system: Arabidopsis thaliana T1 plants; assay: Topramezone tolerance of transgenic Arabidopsis thaliana T1 plants (spray, bleached leaf area grade, damage score); settings: 7 DAT, Table 4; for Classification and statistics of the grade of pesticide damage: Grade 0 / Classification and statistics of the grade of pesticide damage: Grade 1 / Classification and statistics of the grade of pesticide damage: Grade 2 / Classification and statistics of the grade of pesticide damage: Grade 3: number of plants; for Scores: pesticide damage score 0-100
Summary of the method: (§1)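 Damage was assessed by bleaching grade (0 none; 1 <50%; 2 >50%; 3 100% of leaf area) one week after spraying. Sprays on 18-day-old T1 and wild-type plants used field-rate multiples: topramezone 25–200, isoxaflutole 35–280, mesotrione 52.5–420 g ai/ha.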

[2] = system: Arabidopsis thaliana T1 plants; assay: Isoxaflutole tolerance of transgenic Arabidopsis thaliana T1 plants (spray, bleached leaf area grade, damage score); parameters: Scores (pesticide damage): scale not given here; settings: spray, Arabidopsis thaliana T1 plants; for Classification and statistics of the grade of pesticide damage: Grade 0 (number of plants) / Classification and statistics of the grade of pesticide damage: Grade 1 (number of plants) / Classification and statistics of the grade of pesticide damage: Grade 2 (number of plants) / Classification and statistics of the grade of pesticide damage: Grade 3 (number of plants): 16 plants
Summary of the method: as §1

[3] = system: Arabidopsis thaliana T1 plants; assay: Mesotrione tolerance of transgenic Arabidopsis thaliana T1 plants (spray, bleached leaf area grade, damage score); parameters: Scores: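 damage score 0-100 computed as Σ(N×S)/(T×M)×100 over grades 0-3 with higher meaning more damage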; settings: Arabidopsis thaliana T1 plants; for Grade 0 (classification and statistics of the grade of pesticide damage; number of plants) / Grade 1 (classification and statistics of the grade of pesticide damage; number of plants) / Grade 2 (classification and statistics of the grade of pesticide damage; number of plants) / Grade 3 (classification and statistics of the grade of pesticide damage; number of plants): 16 plants
Summary of the method: as §1

soybean T1 plants [4] = assay: Topramezone tolerance of transgenic soybean T1 plants; settings: different concentrations
Method: T1 transformants were initially selected from the untransformed seeds using a glufosinate selection scheme. […] The degree of damage caused by the herbicide was measured for each plant according to the proportion of bleached leaf area (the proportion of bleached leaf area=bleached leaf area/total leaf area×100%) 7 days after spraying (7 DAT): the case where there is basically no bleached phenotype is defined as grade 0, the case where the proportion of bleached leaf area is less than 50% is defined as grade 1, the case where the proportion of bleached leaf area is more than 50% is defined as grade 2, and the case where the proportion of bleached leaf area is 100% grade is defined as grade 3.
The soybean T1 plants into which the SbHPPD-02 nucleotide sequence was introduced, soybean T1 plants into which the SbHPPDm-F372A-02 nucleotide sequence was introduced, soybean T1 plants into which the SbHPPDm-F383W-02 nucleotide sequence was introduced, soybean T1 plants into which the SbHPPDm-F372A-F383W-02 nucleotide sequence was introduced, soybean T1 plants into which the control vector DBN11726N nucleotide sequence was introduced, and wild-type soybean plants (V3-V4 at seedling stage) were sprayed with topramezone at three different concentrations (i.e., 25 g ai/ha (one-fold field concentration, 1×). […] According to the method in point 6 of Example 1, after 7 days of spraying (7 DAT), the damage degree of each plant by the herbicide was statistically analyzed, and the scoring and resistance evaluation were carried out accordingly. […]

soybean T1 plants [5] = assay: Isoxaflutole tolerance of transgenic soybean T1 plants; settings: different concentrations
soybean T1 plants [6] = assay: Mesotrione tolerance of transgenic soybean T1 plants; settings: different concentrations
[7] = isoxaflutole 35 g ai/ha (0.5x field concentration)
[8] = isoxaflutole 70 g ai/ha (1x field concentration)

B1: SbHPPDm-F383W-02: nucleotide sequence encoding Sorghum bicolor HPPD with F383W; vector DBN11760 (nucleic acid)
DNA: ATGCCGCCCACTCCAACAACTGCTGCTGCGACGGGAGCAGCTGTCGCCGCTGCTTCTGCTGAGCAGGCTGCCTTCAGGCTCGTCGGGCACAGAAATTTTGTTCGTGTAAATCCAAGGAGTGATAGGTTCCACACCTTGGCTTTTCACCACGTGGAGTTGTGGTGTGCTGATGCAGCCTCGGCAGCGGGGCGCTTCTCGTTTGGTCTCGGTGCTCCGCTCGCCGCAAGATCTGATCTTAGCACTGGAAACACAGCGCATGCCTCCCTGCTCCTGCGCTCTGGCGCGCTGGCGTTCCTCTTCACGGCGCCATATGCTCACGGCGCCGACGCCGCCACCGCGTCATTGCCGTCTTTTAGTGCAGCCGAAGCAAGAAGATTTGCAGCAGACCACGGCCTCGCCGTAAGGGCCGTGGCCTTACGTGTCGCCGATGCCGAAGATGCTTTCCGCGCCTCTGTAGCAGCTGGAGCAAGGCCAGCATTTGAACCTGTTGAATTGGGGTTAGGATTCCGTCTTGCAGAAGTTGAGCTTTATGGCGACGTTGTTTTGAGATACGTTTCATATCCTGATGACGCTGACGCTAGCTTCTTGCCTGGTTTTGTGGGGGTGACATCACCTGGGGCAGCAGATTATGGTCTCAGGCGGTTTGATCATATTGTTGGAAACGTTCCTGAACTCGCGCCGGCGGCAGCCTACTTCGCCGGTTTCACTGGGTTTCATGAATTTGCTGAATTCACAGCCGAGGATGTCGGCACCACCGAGAGTGGACTGAACTCCATGGTGCTGGCCAACAATGCAGAGAATGTCCTTCTTCCCTTGAATGAACCAGTTCATGGAACAAAAAGGCGTTCCCAAATACAAACATACCTCGACCATCATGGTGGACCAGGCGTTCAGCATATGGCTCTCGCTAGTGACGATGTTCTACGAACCCTGCGAGAGATGCAGGCGCGGTCTGCAATGGGAGGATTTGAGTTCATGGCACCTCCTGCCCCTGAATATTATGATGGTGTTCGGAGAAGGGCAGGTGATGTGCTAACTGAAGCTCAAATCAAGGAGTGCCAGGAGCTTGGCGTGCTGGTCGATCGGGATGATCAAGGTGTGCTTCTGCAGATTTTTACTAAACCAGTGGGTGACCGCCCCACGCTGTGGCTAGAGATCATCCAGAGAATAGGGTGCATGGAGAAGGACGAAAAAGGACAAGAGTACCAGAAGGGAGGTTGTGGCGGCTTTGGAAAAGGGAACTTCTCCCAATTATTCAAGTCAATTGAAGACTATGAAAAGAGTTTGGAGGCTAAGCAAGCTGCAGCCGCCCAGGGCAGCTGA
modifications: SbHPPDm-F383W-02 Nucleotide Sequence
notes: vector DBN11760
Classification and statistics of the grade of pesticide damage: Grade 0 ([1]; topramezone 25 g ai/ha (1×)): 7
Classification and statistics of the grade of pesticide damage: Grade 1 ([1]; topramezone 25 g ai/ha (1×)): 6
Classification and statistics of the grade of pesticide damage: Grade 2 ([1]; topramezone 25 g ai/ha (1×)): 3
Classification and statistics of the grade of pesticide damage: Grade 3 ([1]; topramezone 25 g ai/ha (1×)): 0
Classification and statistics of the grade of pesticide damage: Grade 0 ([1]; topramezone 100 g ai/ha (4×)): 0
Classification and statistics of the grade of pesticide damage: Grade 1 ([1]; topramezone 100 g ai/ha (4×)): 0
Classification and statistics of the grade of pesticide damage: Grade 2 ([1]; topramezone 100 g ai/ha (4×)): 0
Classification and statistics of the grade of pesticide damage: Grade 3 ([1]; topramezone 100 g ai/ha (4×)): 16
Scores ([1]; topramezone 25 g ai/ha (1×)): 25
Scores ([1]; topramezone 100 g ai/ha (4×)): 100
Resistance evaluation ([1]; topramezone 25 g ai/ha (1×)): moderately
Resistance evaluation ([1]; topramezone 100 g ai/ha (4×)): non-resistant (non-resistant plants (scores 68-100))
Resistance evaluation [2, 7]: Poorly
Scores (pesticide damage) [2, 7]: 65
Classification and statistics of the grade of pesticide damage: Grade 0 (number of plants) [2, 7]: 0
Classification and statistics of the grade of pesticide damage: Grade 1 (number of plants) [2, 7]: 1
Classification and statistics of the grade of pesticide damage: Grade 2 (number of plants) [2, 7]: 15
Classification and statistics of the grade of pesticide damage: Grade 3 (number of plants) [2, 7]: 0
Resistance evaluation [2, 8]: Non-resistant
Scores (pesticide damage) [2, 8]: 100
Classification and statistics of the grade of pesticide damage: Grade 0 (number of plants) [2, 8]: 0
Classification and statistics of the grade of pesticide damage: Grade 1 (number of plants) [2, 8]: 0
Classification and statistics of the grade of pesticide damage: Grade 2 (number of plants) [2, 8]: 0
Classification and statistics of the grade of pesticide damage: Grade 3 (number of plants) [2, 8]: 16
Resistance evaluation ([3]; mesotrione 52.5 g ai/ha): Non-resistant
Scores ([3]; mesotrione 52.5 g ai/ha): 69
Grade 0 (classification and statistics of the grade of pesticide damage; number of plants) ([3]; mesotrione 52.5 g ai/ha): 0
Grade 1 (classification and statistics of the grade of pesticide damage; number of plants) ([3]; mesotrione 52.5 g ai/ha): 5
Grade 2 (classification and statistics of the grade of pesticide damage; number of plants) ([3]; mesotrione 52.5 g ai/ha): 5
Grade 3 (classification and statistics of the grade of pesticide damage; number of plants) ([3]; mesotrione 52.5 g ai/ha): 6
Resistance evaluation ([3]; mesotrione 105 g ai/ha): Non-resistant
Scores ([3]; mesotrione 105 g ai/ha): 100
Grade 0 (classification and statistics of the grade of pesticide damage; number of plants) ([3]; mesotrione 105 g ai/ha): 0
Grade 1 (classification and statistics of the grade of pesticide damage; number of plants) ([3]; mesotrione 105 g ai/ha): 0
Grade 2 (classification and statistics of the grade of pesticide damage; number of plants) ([3]; mesotrione 105 g ai/ha): 0
Grade 3 (classification and statistics of the grade of pesticide damage; number of plants) ([3]; mesotrione 105 g ai/ha): 16
tolerance to HPPD-inhibitor herbicides (in words): topramezone (soybean T1 plants [4]): different degrees of tolerance
tolerance to HPPD-inhibitor herbicides (in words): isoxaflutole (soybean T1 plants [5]): different degrees of tolerance
tolerance to HPPD-inhibitor herbicides (in words): mesotrione (soybean T1 plants [6]): different degrees of tolerance
